Legend:
[1] = molecular target: T1, TLR9 tagged at the C terminus with enhanced green fluorescent protein, Q9NR96; assay: photon counting histogram (PCH); live HEK 293 cells expressing TLR9-GFP; molecular brightness compared with GFP monomer; two-component global fit with the brightness of GFP monomer and GFP dimer fixed; bin size 50 µs; without DNA, with CpG DNA or with non-CpG DNA; monomer to dimer; conditions: remark: other sources report otherwise
T1 chain: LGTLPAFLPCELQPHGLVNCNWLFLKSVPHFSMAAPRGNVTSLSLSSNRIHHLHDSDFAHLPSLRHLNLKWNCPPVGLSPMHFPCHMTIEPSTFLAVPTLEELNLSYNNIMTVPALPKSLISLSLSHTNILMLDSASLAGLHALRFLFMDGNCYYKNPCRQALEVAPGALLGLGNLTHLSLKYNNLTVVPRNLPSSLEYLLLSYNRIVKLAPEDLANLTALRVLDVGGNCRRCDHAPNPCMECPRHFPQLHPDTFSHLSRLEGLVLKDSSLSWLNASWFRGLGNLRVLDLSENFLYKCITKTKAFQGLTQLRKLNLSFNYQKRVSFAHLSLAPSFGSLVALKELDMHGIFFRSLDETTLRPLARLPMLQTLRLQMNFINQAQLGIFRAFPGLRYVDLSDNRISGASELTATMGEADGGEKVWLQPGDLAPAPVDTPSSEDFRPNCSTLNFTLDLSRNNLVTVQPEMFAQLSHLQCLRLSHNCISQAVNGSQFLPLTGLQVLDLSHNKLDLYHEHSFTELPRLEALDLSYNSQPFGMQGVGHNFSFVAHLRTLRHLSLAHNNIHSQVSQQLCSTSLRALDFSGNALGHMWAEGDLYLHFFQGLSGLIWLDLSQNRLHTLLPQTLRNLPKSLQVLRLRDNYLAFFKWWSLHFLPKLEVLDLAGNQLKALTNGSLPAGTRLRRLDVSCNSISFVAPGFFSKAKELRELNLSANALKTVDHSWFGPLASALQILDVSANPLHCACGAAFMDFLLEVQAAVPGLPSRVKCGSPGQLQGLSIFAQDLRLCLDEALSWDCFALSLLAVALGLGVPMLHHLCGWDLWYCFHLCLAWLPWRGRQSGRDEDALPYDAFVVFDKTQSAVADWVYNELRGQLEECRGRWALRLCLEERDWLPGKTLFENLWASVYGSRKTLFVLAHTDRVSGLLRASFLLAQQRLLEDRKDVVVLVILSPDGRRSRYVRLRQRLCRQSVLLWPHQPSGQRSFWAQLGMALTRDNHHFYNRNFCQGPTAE

[2] = molecular target: T1, TLR9 tagged at the C terminus with …; assay: two-dimensional photon counting histogram (2dPCH); live HEK 293 cells expressing TLR9-GFP, incubated with Cy5-labelled CpG or non-CpG DNA; single-component fit; brightness in the green and red channels; bin size 50 µs; conditions: remark: other sources report otherwise

B1: TLR9 tagged at the C terminus with enhanced green fluorescent protein, Q9NR96 26-1032 (receptor)
chain: T1 chain
[1]
  percent of TLR9 as dimers (no DNA): 79.1%
  percent of TLR9 as dimers (with CpG DNA): 82.6%
  percent of TLR9 as dimers (with non-CpG DNA): 82.6%
  stoichiometry N: 2
[2]
  stoichiometry N: 2
